According to paper PMC10232437 (Scientific Reports, 2023):

Target: the molecule itself
Assay: non-reducing SDS-PAGE with western blot; insoluble fraction (final pellet after Triton X-100 extraction) of SN tissue from control, MPTP/probenecid and NSA-treated mice, resuspended by sonication in 2% SDS lysis buffer, loaded with non-reducing sample buffer; anti-MLKL blot

B1: mixed lineage kinase domain-like protein (natural protein, UniProt Q9D2Y4 1-472, looked up)
chain: MDKLGQIIKLGQLIYEQCEKMKYCRKQCQRLGNRVHGLLQPLQRLQAQGKKNLPDDITAALGRFDEVLKEANQQIEKFSKKSHIWKFVSVGNDKILFHEVNEKLRDVWEELLLLLQVYHWNTVSDVSQPASWQQEDRQDAEEDGNENMKVILMQLQISVEEINKTLKQCSLKPTQEIPQDLQIKEIPKEHLGPPWTKLKTSKMSTIYRGEYHRSPVTIKVFNNPQAESVGIVRFTFNDEIKTMKKFDSPNILRIFGICIDQTVKPPEFSIVMEYCELGTLRELLDREKDLTMSVRSLLVLRAARGLYRLHHSETLHRNISSSSFLVAGGYQVKLAGFELSKTQNSISRTAKSTKAERSSSTIYVSPERLKNPFCLYDIKAEIYSFGIVLWEIATGKIPFEGCDSKKIRELVAEDKKQEPVGQDCPELLREIINECRAHEPSQRPSVDGRSLSGRERILERLSAVEESTDKKV
notes: mixed lineage kinase domain-like protein (MLKL), mouse, endogenous in the substantia nigra of C57BL/6 mice; Seen as a tetramer band in the insoluble fraction (non-reducing sample buffer) and as an oligomer on an A11 blot; also called MLKL; source: endogenous, mouse substantia nigra tissue lysate
stoichiometry N: 4
